The text below walks through data of the supplement of paper PMC12042874.

± gives the uncertainty stated by the source.

The data set is described as follows: amyloid nucleation score (Sup35N fusion, yeast selection) (log enrichment); library NNK1; higher = more nucleation; inactive = no reads after selection. The procedure, abridged:
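The nucleation score equals the log enrichment of output over input reads from DiMSum, centred on the mode score of non-aggregating sequences. It was computed only for sequences with 100 or more input reads. The reads came from Illumina sequencing of plasmid inserts from psi-negative yeast expressing Sup35N fused to peptides of 20 random codons, induced with 100 μM copper sulfate for 24 hours and grown 7 days at 30°C without adenine and uracil.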
Turning to NAVSIRGLRVDRQN, the amyloid nucleation score was determined as 0.112 ± 0.55.

The substance FICERPGSRKTTLPTVTVIR registered an amyloid nucleation score of -0.499 ± 0.98.

CIYIQYYLNLTVFCRVRLNA yielded an amyloid nucleation score of -0.516 ± 1.7.

With LSYRCVVYSVMIWSDIRALV, the amyloid nucleation score was 0.655 ± 0.3.

Regarding FRFVG, the amyloid nucleation score was -1.53 ± 0.83.

Consider IVFVLQGRRQ, for which the amyloid nucleation score was 0.634 ± 0.88.

In turn, NLVYTTDT registered an amyloid nucleation score of 0.467 ± 0.41.

As to AFQESRGQSNWYIYMLVHTS, the amyloid nucleation score stood at 1.11 ± 0.54.

Regarding GKMLFRGSGIRPCGALIGVK, the amyloid nucleation score is -0.561 ± 1.1.

CDRVGSKEQSFDKWPLWFAP displayed an amyloid nucleation score of -1.18 ± 1.9.

In turn, QLSTISFLQWSGSACSSTVH gave an amyloid nucleation score of -0.49 ± 0.74.

Turning to TLQNNLTFPDCLGLRCGSHV, the amyloid nucleation score was determined as 5.03 ± 0.085.

VFYLCFTSQYYLSAGTVNAW yielded an amyloid nucleation score of 4.99 ± 0.064.

For the substance TFMLATDGV, the amyloid nucleation score was 0.595 ± 0.69.

Regarding FGHKCAIFGNWEF, the amyloid nucleation score was -0.933 ± 0.84.

The substance RGNLGLDLWICSGYRMVMFQ registered an amyloid nucleation score of -0.784 ± 0.3.

CLLHEASCGWFFGWFVRHT registered an amyloid nucleation score of 0.989 ± 0.28.

The substance RTSVLVSASALPNSLSFRQG showed an amyloid nucleation score of -0.647 ± 1.1.

For IDKMELFSRSKHKWYMASAI, the amyloid nucleation score is -0.267 ± 0.79.

VRLNQLDNSLAVRSATNPGA yielded an amyloid nucleation score of 0.524 ± 0.65.

In the case of SIMPWNLSVRSMWRFWMNLR, the amyloid nucleation score entry is “inactive”.

Take PSLASCSRL: the amyloid nucleation score is 0.28 ± 0.41.

The substance RNCNNVYFELSVLASFLRVR showed an amyloid nucleation score of 8.107 ± 0.05.

GAVIRRWVIGSGALRDSCND had an amyloid nucleation score of 0.382 ± 1.2.

Substance NMGNLFNICETGNLL returned an amyloid nucleation score of 0.296 ± 0.66.

FCMTTSVSSNTLV: the amyloid nucleation score is -0.013 ± 0.94.

Take DMFCQAI: the amyloid nucleation score turned out to be 0.773 ± 0.39.

YFVMGLIFGLKRLLVLAIRR came in with an amyloid nucleation score of -0.53 ± 0.3.

The substance LGCLFNAGAFWAYGGMVSLH had an amyloid nucleation score of -0.024 ± 0.57.

As to LDGTAYVDFVVCLEGGTDVI, the amyloid nucleation score was -0.18 ± 0.37.

The substance SLYYEG returned an amyloid nucleation score of 0.867 ± 0.45.

In turn, LTLLA showed an amyloid nucleation score of -0.096 ± 1.7.

Substance SSSGFNIFRLLV displayed an amyloid nucleation score of -0.325 ± 0.25.

The substance SRKVLTPVSPVSVRAARVGH showed an amyloid nucleation score of -0.979 ± 1.9.

As to SLVMKVPLFECVCIGMCGRA, the amyloid nucleation score is 0.448 ± 0.52.

As for SNMSHLNRG, the amyloid nucleation score is 0.649 ± 0.75.

Consider YLDRSRLMIKCHVHVKYVYY, for which the amyloid nucleation score is 7.92 ± 0.048.

On to VDGLHLNSYYEPVSMMSIVV, for which the amyloid nucleation score is -0.336 ± 0.43.

RFTLCCRMNGLVRYMSEN: the amyloid nucleation score result was “inactive”.

MGNHCLTR registered an amyloid nucleation score of 1.12 ± 0.58.

The substance MTMKLFRQD had an amyloid nucleation score of -0.049 ± 1.1.

GTSSYMV had an amyloid nucleation score of -0.01 ± 0.23.

The substance SSGRRWWTFQHHQIYLKVRS had an amyloid nucleation score of 1.09 ± 0.59.

The substance LESFWGSPA returned an amyloid nucleation score of 0.445 ± 1.2.

Turning to GLGLCRVE, the amyloid nucleation score is -0.373 ± 0.38.

VCLVVEIG registered an amyloid nucleation score of 1.04 ± 0.93.

With LSYDEYPGMNASAAIQGLVV, the amyloid nucleation score was -0.556 ± 1.4.

In turn, FLAYLPSEKC displayed an amyloid nucleation score of -0.267 ± 0.44.

Take FDLTLCICCLRSECYYITPR: the amyloid nucleation score was 8.732 ± 0.049.

Turning to SWGLGSFLY, the amyloid nucleation score came to 0.06 ± 0.36.

As for VDGGMLSHYYYC, the amyloid nucleation score amounted to 0.258 ± 0.23.

Consider NKNCLELCLTHGMLNQL, for which the amyloid nucleation score is 0.25 ± 0.36.

HRRAFRQVVVTAGPKQASPM had an amyloid nucleation score of 0.001 ± 0.56.

RFRKHRFVVLLCYWCLVFRE showed an amyloid nucleation score of 0.766 ± 1.2.

As for NRYPTLFWCVRNRVWECLRV, the amyloid nucleation score turned out to be 0.392 ± 0.46.

For the substance SPLSYAI, the amyloid nucleation score worked out at 1.36 ± 0.58.

Substance VTLTYNYVRRTHMRRDVVAK came in with an amyloid nucleation score of 0.6 ± 0.34.

As to LRILVITYILCT, the amyloid nucleation score is -0.331 ± 0.42.

Substance RCWRSLPRLLRQFMDSSRTI showed an amyloid nucleation score of -0.27 ± 0.61.

As for KWHTRENCFSFLYVYFLMFP, the amyloid nucleation score entry was “inactive”.

Take TDVMSHGSAETGWCFLMSAF: the amyloid nucleation score came out at 0.124 ± 0.7.

Turning to KRRGSFKVLYSHSVGLYQSF, the amyloid nucleation score was 2.79 ± 0.14.

With SSPDFMFYILNRALA, the amyloid nucleation score was -0.526 ± 1.4.

As to YYMRGTKRRIVRVYFWMLRC, the amyloid nucleation score was determined as 1.59 ± 0.4.

For INGPCLLTYLPLAEVGCCLV, the amyloid nucleation score was found to be 0.25 ± 0.55.

Turning to WNMFGS, the amyloid nucleation score is 0.848 ± 0.29.

As to DKTGLGRRGPIIFSLSFRWS, the amyloid nucleation score is -1.55 ± 1.4.

WCTATGVSRFTMGIKTCHCL registered an amyloid nucleation score of 0.738 ± 0.38.

LFLLEINVSSRIWPSFPKSY gave an amyloid nucleation score of 0.257 ± 0.42.

Substance LRSSVSFGQLSRNPHAGSSH gave an amyloid nucleation score of -1.4 ± 1.4.

The substance LLMEFI gave an amyloid nucleation score of 1.46 ± 0.84.

The substance NWVVFRMRHRLQTSFWGCGE displayed an amyloid nucleation score of 0.123 ± 0.57.

For FCNWANLYGTWLMLCVGSGR, the amyloid nucleation score is 0.712 ± 0.42.

TIGPSGNLEGCVLSVGASNI: the amyloid nucleation score is -1.35 ± 1.2.

With GGFHYAVDWSCLRNIVWADL, the amyloid nucleation score was -1.2 ± 2.4.

In the case of VRMVQEMFRRRTLEELAMGA, the amyloid nucleation score was 0.447 ± 0.68.

In the case of SACALSYYCGWISRCSYLCP, the amyloid nucleation score was -0.158 ± 0.63.

FAQFSAWRTTNGRYKHHFTL came in with an amyloid nucleation score of -0.256 ± 0.52.

In turn, KLQLVSLWQ returned an amyloid nucleation score of 2.77 ± 0.11.

On to STVIHN, for which the amyloid nucleation score is 1.23 ± 0.84.

In turn, ATVSDF showed an amyloid nucleation score of -0.478 ± 0.36.

For HLFTGNAYRGTRMGKLVGSH, the amyloid nucleation score turned out to be 0.328 ± 0.41.

For the substance SLESS, the amyloid nucleation score was determined as 0.642 ± 0.62.

EYLFCCVCADLFNTWDKSLG showed an amyloid nucleation score of 7.29 ± 0.052.

Substance RCVMFQVRHSNIGRKRDYGI had an amyloid nucleation score of 0.389 ± 1.2.

Turning to GLVLTIWHLRTAEERIVYRA, the amyloid nucleation score was found to be 1.58 ± 0.26.

Take TSSWDSPCYQEAVFIGGYYI: the amyloid nucleation score was 0.619 ± 0.47.

The substance CECRRANVADPFRVSCWAKF yielded an amyloid nucleation score of 0.156 ± 1.2.

RTIGFTEELP: the amyloid nucleation score is -0.577 ± 0.96.

For DSIGVTH, the amyloid nucleation score is -0.002 ± 0.41.

With AIVSGRTFDKPNMKRCL, the amyloid nucleation score is -1.44 ± 0.69.

In turn, HGIIHFVLQMW registered an amyloid nucleation score of 1.85 ± 0.49.

PTYTGVLSLN: the amyloid nucleation score is 0.341 ± 0.56.

In turn, LPYNHTQTVMDFIYFVFWLL showed an amyloid nucleation score of 0.698 ± 0.24.

As to MVSSCWICRALKAYVLQPWV, the amyloid nucleation score is 0.108 ± 0.72.

LVYILMLYWVYGQIGNFSLV registered an amyloid nucleation score of -0.955 ± 0.9.

As to FVMRAFNLIRWVGSACNLET, the amyloid nucleation score result was “inactive”.

The substance YGVVYNIWHFIEMKGDYTHA had an amyloid nucleation score of 6.869 ± 0.055.

Substance VGSTLYHLRKDMSTLSPGMY had an amyloid nucleation score of 0.012 ± 0.34.

YFSSYFV: the amyloid nucleation score worked out at 0.118 ± 0.41.

In the case of KSQCWRSGLVLFNA, the amyloid nucleation score is -0.243 ± 0.36.

The substance SSLVKTS showed an amyloid nucleation score of -0.44 ± 0.47.

As for INYRLYGVIGVAGTGPG, the amyloid nucleation score was 0.1 ± 0.33.

Turning to LEDHVWKVVVYLSKNDVCMG, the amyloid nucleation score amounted to 0.269 ± 0.67.

KGYGRFMSFF showed an amyloid nucleation score of -0.697 ± 0.4.

For the substance AVVWDTIYNKTKPLVRP, the amyloid nucleation score worked out at 0.57 ± 0.93.

Substance HQVIQGVSYSTCG had an amyloid nucleation score of 0.107 ± 0.38.

SRVCYNRWLKLWDSDRPVIG came in with an amyloid nucleation score of -0.001 ± 0.36.

With NEIYKTA, the amyloid nucleation score is -1.12 ± 2.7.

Substance SAGGHSLSVTYWSGCSLRTV displayed an amyloid nucleation score of 0.272 ± 0.23.

Substance ERQLKEEY came in with an amyloid nucleation score of 0.06 ± 0.33.

HTLTPAHPTNGVVT yielded an amyloid nucleation score of -0.871 ± 1.3.

VYSQINSRHWEFMDLELSLG gave an amyloid nucleation score of 0.147 ± 0.93.

As to AYCVAHTYCMSGMRYIADWV, the amyloid nucleation score worked out at 0.421 ± 0.31.

Consider HCRYMMSRVILSCILARPQ, for which the amyloid nucleation score was 2.55 ± 0.15.

MLHICCFQSVHLMDWSSH had an amyloid nucleation score of -0.144 ± 0.67.

Substance ILGVFNTIVVFKR registered an amyloid nucleation score of 4.9 ± 0.066.

RASILCA came in with an amyloid nucleation score of 0.268 ± 0.66.

In turn, YNSRRCNIHFNFIGKC came in with an amyloid nucleation score of 6.783 ± 0.054.

TIVELFYDRSLR came in with an amyloid nucleation score of 1.17 ± 0.33.

For QKPTMFGA, the amyloid nucleation score is -0.338 ± 0.28.

Take AMWYMKCNTYKVWLGDMYLV: the amyloid nucleation score was found to be 0.193 ± 0.18.

In turn, TGSLVFLTLTLLLVCYLPIT came in with an amyloid nucleation score of 0.302 ± 0.43.

On to GLSTMQCVNICFWSYVTW, for which the amyloid nucleation score was 1.37 ± 0.26.

VGVGFIHNLGTLEIQVT returned an amyloid nucleation score of -0.359 ± 0.36.

TTALFWSRRPSFGDLYRGFN had an amyloid nucleation score of 3.86 ± 0.082.

Consider PYYFEGGEAQTPRHSDGQWM, for which the amyloid nucleation score was -0.769 ± 0.56.

The substance YFWMIPMTGEVHNCPDLAPK displayed an amyloid nucleation score of 0.386 ± 0.33.

In turn, DITNVAWNMPNTRCEPKPLK had an amyloid nucleation score of 0.444 ± 1.2.

Consider EGVNYIMKDVLLVDTKVAEN, for which the amyloid nucleation score is -0.175 ± 0.66.

In turn, VVEIWR returned an amyloid nucleation score of 0.655 ± 0.6.

Consider ILKEIMIGGRDRTDDWKSHG, for which the amyloid nucleation score was -1.3 ± 0.8.

In turn, ILCSLYYICT displayed an amyloid nucleation score of 2.74 ± 0.071.

Substance GLVVIGRSCDDYESIMTRSM came in with an amyloid nucleation score of 0.171 ± 0.41.

As for HSALIQSIEGVINVGCGVKK, the amyloid nucleation score is 1.25 ± 0.23.

Consider FMVACWHSKWAYDNCYYNSS, for which the amyloid nucleation score entry was “inactive”.

NDYFY yielded an amyloid nucleation score of -0.598 ± 1.4.

Substance LPCHWVHVQGHHWLRLDVMC displayed an amyloid nucleation score of 0.2 ± 0.64.

Take NVNEDRPAGALVLEFLNRTL: the amyloid nucleation score was determined as 1.47 ± 0.69.

Regarding QYTYFMSGDWSNGRVSLVKK, the amyloid nucleation score was found to be 2.96 ± 0.099.

The substance PDDSKFSNV returned an amyloid nucleation score of 0.902 ± 0.88.

In turn, RLLSLLINMTVVVWLSRKT yielded an amyloid nucleation score of 2.43 ± 0.25.
